# Tested on: F1*sub RNA substrate (template-directed ligation)
# Test: fraction ligated after 30 min (ligated reads / total reads); higher = more ligase activity; sequences stand for … in GAGACCGCAACTGAAAAGTTGT…AGTTCTGCACGTAGAAGCAAAAGGC
# Details: 42 °C
# How it was run: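 Ribozyme variants were transcribed with T7 from PCR-amplified oligo-pool templates and gel-purified. Ligated and unligated bands, separated on gel, were reverse transcribed with barcoded primers and sequenced on a MiSeq, with core bases filtered at quality ≥20. Fraction ligated per variant was computed as ligated reads divided by total reads.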
row,Sequence,fraction ligated
1,TATCACTTGTCGTAAGAACTTGGAGGGTTGA [3d2162],0.0364
2,TACCTTGTCGTAAGACCTTTGGATGGGTTGA [3d538],0.734
3,TATATTGTCGTAAGACCTTTGGATGGGTTGA [3d768],0.468
4,ATCACTGTCGTAAGACCTTTGGATGGGTTGA [3d115],0.726
5,TACACTTGTCGTAAACACTTTGGATGGGTTA [3d680],0.00723
6,TATCACTTGTCTAAGACCTTTGGTGGGTTGA [3d1866],0.227
7,TATACTTGTCGAAGACACTTTGATGGGTTGA [3d864],0.755
8,TATCACTTTGTAAGAACTTTGGATGGGTTGA [3d1469],0.866
9,ATCACTTGTCGAAGACACTTGGATGGGTTGA [3d191],0.728
10,TATCCTGTCGTAAGACACTTTGGATGGTTGA [3d965],0.038
11,TATCACTTGTCGTAAGAATTTGGATGGGTTG [3d2158],0.798
12,TATCACTTGTCGTAAGACACTGGTGGGTTGA [3d2233],0.00438
13,TATCACTTGTCTAAGACACTTTGGTGGGTTA [3d1893],0.104
14,TATCATTTCGTAAGAACTTTGGATGGGTTGA [3d1146],0.857
15,TATCACTGTCGTAGCACTTTGGATGGGTTGA [3d1387],0.881
16,TATCCTTGTCGTAAGACATTTGGTGGGTTGA [3d1092],0.237
17,TATCCTTGTCGTAAGACATTTGGAGGGTTGA [3d1093],0.0135
18,TACACTTGTCGTAAGAACTTTGGATGGGTTG [3d699],0.00593
19,TATCACTTGTCGTAAACACTTTGGATGGTTGA [2d241],0.295
20,ATCACTTGTCGTAGACACTTTGGTGGGTTGA [3d206],0.0928
21,ATCACTTGTCGAAGCACTTTGGATGGGTTGA [3d187],0.736
22,TTCACTTGCGTAAGCACTTTGGATGGGTTGA [3d376],0.804
23,TTCACTTTCGTAGACACTTTGGATGGGTTGA [3d358],0.142

row,Sequence,fraction ligated
1,TATCATTGTGTAGACACTTTGGATGGGTTGA [3d1174],0.856
2,TATCACTTGTCGAAGACACTTTGATGGTTGA [3d1967],0.0642
3,TATCACTTGTGTAAGACATTTGATGGGTTGA [3d1780],0.494
4,TACACTTGTCGTAAGACACTTGGATGGTTGA [3d718],0.0649
5,TTACTTGTCTAAGACACTTTGGATGGGTTGA [3d283],0.147
6,TATCACTTCGAAGACACTTTGGATGGGTTGA [3d1313],0.803
7,TATCATTGTCGTAAGACACTTTGAGGGTTGA [3d1278],0.00985
8,TATCACTTGTGTAAGACCTTTGGTGGGTTGA [3d1774],0.157
9,ATCACTGTCTAAGACACTTTGGATGGGTTGA [3d109],0.756
10,TATCCTTGTCGTAAGACACTTTGATGGGTTA [3d1108],0.644
11,TATCACTTGTGTAAGACATTTGGATGGTTGA [3d1783],0.169
12,TATACTTGTCGTAAGCACTTTGGTGGGTTGA [3d898],0.025
13,TACATTGTCGTAAGAACTTTGGATGGGTTGA [3d556],0.0064
14,TATCACTTGTCGGACACTTTGGATGGGTTGA [3d1902],0.785
15,TATCATTGTCGTAAGACATTTGGATGGTTGA [3d1266],0.567
16,TATCACTTGTCGTAAGACCTTTGATGGGTTGA [2d263],0.76
17,TATCACTTTCGTAAGACACTTTGGATGGGTTA [2d161],0.751
18,TATCACTGTCGTAAGAACTTTGGTGGGTTGA [3d1421],0.079
19,TATCACTTGTCGTAGACACTTTGGAGGGTTG [3d2054],0.0621
20,TCACTTGTCGTAAGCACTTTGGATGGGTTGA [3d13],0.608
21,TATCACTTTCGTAAACACTTTGGTGGGTTGA [3d1524],0.0319
22,TATCACTGTCGTAGACACTTTGGATGGTTGA [3d1395],0.409
23,TATCACTGTCGTAAGCACTTGGATGGGTTGA [3d1411],0.745

row,Sequence,fraction ligated
1,TATCACTTTCGTAAGCATTTGGATGGGTTGA [3d1531],0.791
2,TATCCTTGTGTAGACACTTTGGATGGGTTGA [3d1002],0.808
3,TATCCTTGTCGTAAGACCTTGGATGGGTTGA [3d1083],0.756
4,TTCACTTGCGTAAGACATTTGGATGGGTTGA [3d379],0.768
5,TATCACTTGTCGTAAACACTTTGGTGGGTTGA [2d239],0.0914
6,TATACTTGTCGTAAGACACTTGGAGGGTTGA [3d928],0.0325
7,ATCACTTGTCGTAAGAACTTGGATGGGTTGA [3d232],0.751
8,TATCCTTGTCGTAAGACACTTGGTGGGTTGA [3d1099],0.265
9,TATCCTTGCGTAAGAACTTTGGATGGGTTGA [3d990],0.832
10,ATCCTTGTCGTAAGAACTTTGGATGGGTTGA [3d76],0.719
11,TTCACTTGTCGTAAACATTTGGATGGGTTGA [3d444],0.804
12,TATCACTTGTCGTAAACCTTTGGATGGGTTGA [2d235],0.785
13,TATCACTTGCGTAAGCCTTTGGATGGGTTGA [3d1650],0.806
14,TATCATTGTCGTAGACACTTTGGTGGGTTGA [3d1222],0.356
15,TTCACTTGTCGTAGACATTTGGATGGGTTGA [3d434],0.742
16,TATACTTGTCGTAAGACACTGGATGGGTTGA [3d925],0.74
17,TATCACTTGTCGTAAGACCTTTGGATGGGTT [3d2205],0.744
18,TATCCTTGTCGTAAGACACTTGATGGGTTGA [3d1098],0.745
19,TTCACTTGTCGTAAACACTTTGGATGGTTGA [3d449],0.067
20,TATCATTGTCGTAAGCACTTTGGATGGTTGA [3d1244],0.0553
21,TATCACTTCGTAAGACACTTTGGATGGTTGA [3d1324],0.122
22,TATCCTTGTCGAAGACACTTTGATGGGTTGA [3d1036],0.781
23,TATCACTTGTCGTAAGACATTTATGGGTTGA [3d2214],0.0203

row,Sequence,fraction ligated
1,TATCACTTTCGTAAGACATTTGGATGGGTTA [3d1559],0.778
2,TATCACTGTGTAAGACCTTTGGATGGGTTGA [3d1349],0.889
3,TACATTTCGTAAGACACTTTGGATGGGTTGA [3d548],0.0271
4,TATCACTTCGTAAGACACTTTGGATGGGTTG [3d1326],0.795
5,TATCCTGTCGTAAGACATTTGGATGGGTTGA [3d960],0.766
6,ATCACTTGTGTAAGACACTTTGGATGGGTTG [3d170],0.838
7,TTCACTTGTCGTAGAACTTTGGATGGGTTGA [3d432],0.761
8,TCACTTGTCGAAGACACTTTGGATGGGTTGA [3d10],0.748
9,ATACTTGTCGTAAGCACTTTGGATGGGTTGA [3d56],0.279
10,TTCACTTGTCTAAGCACTTTGGATGGGTTGA [3d405],0.67
11,TATCACTTGTCGTAAGCCTTGGATGGGTTGA [3d2114],0.778
12,TATCCTTGTCGAAGCACTTTGGATGGGTTGA [3d1031],0.775
13,ATCACTTGTCGTAAGACACTTTGGAGGTTGA [3d270],0.0103
14,TATCACTTGTCGTGACACTTTGGAGGGTTGA [3d1989],0.0822
15,TACACTTTCGTAAGACACTTTGGTGGGTTGA [3d596],0.0156
16,TATACTTGTCTAAGACACTTTGGATGGTTGA [3d854],0.0769
17,TATCACTGTCGTAAGACATTTGGATGGGTTG [3d1439],0.82
18,TATCACTTGTCGTAAGACATTGGATGGGTTGA [2d269],0.815
19,TAACTTGTCGAAGACACTTTGGATGGGTTGA [3d514],0.112
20,TATCACTTTCGAAGCACTTTGGATGGGTTGA [3d1495],0.766
21,TATCACTTGTGAAGACACTTGGATGGGTTGA [3d1724],0.801
22,TATCACTGTCGTAAGACATTGGATGGGTTGA [3d1433],0.818
23,TATCCTTGTCTAAGACACTTTGATGGGTTGA [3d1023],0.748

row,Sequence,fraction ligated
1,ATACTTGTCGTAAGACACTTTGGTGGGTTGA [3d62],0.0395
2,TATCACTTGCTAAACACTTTGGATGGGTTGA [3d1601],0.777
3,TTACTTGTCGTAAGACACTTTGGATGGGTTG [3d297],0.299
4,TATCACTTGTCTAAGCATTTGGATGGGTTGA [3d1848],0.818
5,TATCACTTGCTAAGACACTTGGATGGGTTGA [3d1606],0.782
6,TATCCTTGTCTAAGACATTTGGATGGGTTGA [3d1021],0.793
7,TACACTTGTCGTAAGACCTTTGGATGGGTTA [3d705],0.136
8,TATCACTTGTCGTAAGACACGGATGGGTTGA [3d2231],0.231
9,TATCACTTGTCGAAGACACTTTGGTGGTTGA [3d1971],0.0847
10,TTCCTTGTCGTAAGACATTTGGATGGGTTGA [3d309],0.756
11,TATCACTTTCGTAAGCACTTGGATGGGTTGA [3d1532],0.772
12,TATCACTTGCGTAAGAACTTTGGTGGGTTGA [3d1662],0.0953
13,TATCCTTGTCTAAGCACTTTGGATGGGTTGA [3d1018],0.765
14,TATCATTGTCGTAAGACACTTTGGAGGGTTG [3d1288],0.0338
15,TATCACTTGTCGTAAGACACTTTGTGGGTTG [3d2263],0.00738
16,TTCACTGCGTAAGACACTTTGGATGGGTTGA [3d338],0.782
17,TATACTTGTCGTAAGACCTTTGGATGGGTTG [3d917],0.719
18,TATCACTTGTCGAAGACACTTTGGAGGGTTA [3d1975],0.136
19,TATCACTTGTCGTAAGACACTTGGTGGTTGA [3d2245],0.012
20,TATCACTTGTCGTAAGATTTGGATGGGTTGA [3d2106],0.815

# Source: the supplement of paper PMC6755084
